{"source": "paper PMC3135172", "target": "GST-tagged BPTF PHD-bromodomain (human)", "test": "pull-down"}
{"substance": "H4K16ac and H3K4me3 modified mononucleosome (from UniProt P62805 1-103) (complex)", "values": [{"measurement": "fold enhancement of binding over mononucleosomes with only H3K4me3", "value": "2 to 3", "unit": "fold"}]}
